Data as given in doi:10.1101/2021.08.20.457040 (bioRxiv, 2021).

What was measured:
[1] = biological target: T1, His6-GIGYF1 GYF domain (residues 470-538) (human, UniProt O75420 470-538); experiment: pull-down
T1 sequence (looked up): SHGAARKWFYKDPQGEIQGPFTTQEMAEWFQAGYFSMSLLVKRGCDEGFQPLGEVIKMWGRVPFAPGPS

[2] = biological target: T2, His6-GIGYF2 GYF domain (residues 529-597) (human, UniProt Q6Y7W6 529-597); experiment: pull-down
T2 sequence (looked up): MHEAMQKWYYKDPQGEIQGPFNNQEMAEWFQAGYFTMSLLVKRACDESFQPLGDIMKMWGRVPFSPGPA

GWVPPPPGFAP (peptide, UniProt P26651 68-78, looked up) [GST-tagged fragment of the first tetra-proline region of TTP (residues 68-78)]: binds [1]; binds [2].
